Experimental findings from paper PMC9130954 are described below.

The target in assay [1] is Photosystem I (PSI) complex from Anabaena sp. PCC 7120, the monomeric unit of the PSI oligomers (Anabaena sp. PCC 7120 (endogenous)) (UniProt P58576). The assay can be described thus: negative staining EM, single-particle 2D class averaging; purified PSI tetramer sample, 0.15 mg/ml, 0.75% uranyl formate, 120 kV; 359 particles; PSI tetramer structure as reference.
Assay [2] has the same target. The assay can be described thus: negative staining EM, single-particle 2D class averaging; purified supercomplex 2 sample, 0.27 mg/ml, 0.75% uranyl formate, 120 kV; 822 particles; PSI tetramer models rigidly fitted over the 2D map.
For assay [3] the target is unchanged. The assay can be described thus: cryo-EM structure; PSI supercomplex 2 purified by BN-PAGE and re-extraction (buffer A with 0.03% digitonin), about 2.5 mg/ml, fos-choline-8 at 1.0 mM added before blotting; single-particle map at 7.0 Å overall, no symmetry (C1); published PSI dimer (PDB 6K61) and tetramer (PDB 6TCL) models fitted as rigid bodies.
Assay [4] has the same target. The assay is described as follows: negative staining EM, single-particle 2D class averaging; purified supercomplex 1 sample, 0.19 mg/ml, 0.75% uranyl formate, 120 kV; 2,518 particles; PSI tetramer and dimer models rigidly fitted over the 2D map.

Regarding “Photosystem I (PSI) complex from Anabaena sp. PCC 7120, the monomeric unit of the PSI oligomers (from UniProt P58576 1-752; P58565 1-741; P58564 24-164; P58583 1-86; P58577 1-172; Q8YNB0 1-32)”, the stoichiometry N is 4 in assay [1], 8 in assay [2], 8 in assay [3] and 6 in assay [4].

As a reminder, the stoichiometry N is the number of molecules, sites or subunits per partner or assembly.
